PLA spots per cell (spots per cell) data for one substance are collected here from PMC7526893.

The experiment has as its target FLAG-tagged vasodilator-stimulated phosphoprotein (FLAG-VASP), wildtype (human) (UniProt P50552). Kind of experiment: proximity ligation; 293T cells co-expressing p8-HA and FLAG-VASP or FLAG-N-WASP, fixed with 2% PFA; mouse anti-FLAG and rabbit anti-HA, Duolink In Situ Red kit; dots per positive cell counted.
Sequence of UniProt P50552 (P50552 whole entry): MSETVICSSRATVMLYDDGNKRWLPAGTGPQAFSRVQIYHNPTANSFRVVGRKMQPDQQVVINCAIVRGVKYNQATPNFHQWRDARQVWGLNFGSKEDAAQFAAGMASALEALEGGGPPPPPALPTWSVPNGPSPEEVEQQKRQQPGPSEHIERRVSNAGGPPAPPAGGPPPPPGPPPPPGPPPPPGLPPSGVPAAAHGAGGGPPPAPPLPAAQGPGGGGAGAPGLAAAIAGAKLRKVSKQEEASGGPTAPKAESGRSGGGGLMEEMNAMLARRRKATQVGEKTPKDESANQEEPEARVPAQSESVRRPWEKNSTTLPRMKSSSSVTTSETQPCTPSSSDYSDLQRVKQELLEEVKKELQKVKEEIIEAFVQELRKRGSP

As to “HTLV-1 p8 protein, HA-tagged (p8-HA) (natural protein)”, the PLA spots per cell (spots per cell) came out at 7.
